Assay results published in FireProtDB (doi:10.1021/bi000415x).

Conditions: Lithobates pipiens, MES 100 mM, reversible: yes, whole UniProt chain shown; for unfolding free energy / denaturant m value / denaturant midpoint (higher = more stable): 25 °C

B1: Protein P-30 wild type, P22069 (protein)
chain: QDWLTFQKKHITNTRDVDCDNIMSTNLFHCKDKNTFIYSRPEPVKAICKGIIASKNVLTTSEFYLSDCNVTSRPCKYKLKKSTNKFCVTCENQAPVHFVGVGSC
unfolding free energy (pH 2, Thermal, DSC): 8.84 kcal/mol | Tm (pH 2, Thermal, DSC): 69.5 °C | heat capacity change of unfolding (pH 2, Thermal, DSC): 1.48 kcal/mol/K | unfolding enthalpy (calorimetric) (pH 2, Thermal, DSC): 102 kcal/mol | unfolding enthalpy (van 't Hoff) (pH 2, Thermal, DSC): 105 kcal/mol | unfolding free energy (pH 2.5, Thermal, DSC): 9.54 kcal/mol | Tm (pH 2.5, Thermal, DSC): 72.6 °C | heat capacity change of unfolding (pH 2.5, Thermal, DSC): 1.31 kcal/mol/K | unfolding enthalpy (calorimetric) (pH 2.5, Thermal, DSC): 105 kcal/mol | unfolding enthalpy (van 't Hoff) (pH 2.5, Thermal, DSC): 104 kcal/mol | unfolding free energy (pH 3, Thermal, DSC): 10.8 kcal/mol | Tm (pH 3, Thermal, DSC): 76.5 °C | heat capacity change of unfolding (pH 3, Thermal, DSC): 1.43 kcal/mol/K | unfolding enthalpy (calorimetric) (pH 3, Thermal, DSC): 112 kcal/mol | unfolding enthalpy (van 't Hoff) (pH 3, Thermal, DSC): 110 kcal/mol | unfolding free energy (pH 3.5, Thermal, DSC): 12.2 kcal/mol | Tm (pH 3.5, Thermal, DSC): 81.6 °C | heat capacity change of unfolding (pH 3.5, Thermal, DSC): 1.36 kcal/mol/K | unfolding enthalpy (calorimetric) (pH 3.5, Thermal, DSC): 120 kcal/mol | unfolding enthalpy (van 't Hoff) (pH 3.5, Thermal, DSC): 118 kcal/mol | unfolding free energy (pH 4, Thermal, DSC): 13.5 kcal/mol | Tm (pH 4, Thermal, DSC): 86.8 °C | heat capacity change of unfolding (pH 4, Thermal, DSC): 1.24 kcal/mol/K | unfolding enthalpy (calorimetric) (pH 4, Thermal, DSC): 125 kcal/mol | unfolding enthalpy (van 't Hoff) (pH 4, Thermal, DSC): 127 kcal/mol | unfolding free energy (pH 5, Thermal, DSC): 14.1 kcal/mol | Tm (pH 5, Thermal, DSC): 88.3 °C | heat capacity change of unfolding (pH 5, Thermal, DSC): 1.53 kcal/mol/K | unfolding enthalpy (calorimetric) (pH 5, Thermal, DSC): 129 kcal/mol | unfolding enthalpy (van 't Hoff) (pH 5, Thermal, DSC): 132 kcal/mol | denaturant m value (pH 6, GdnHCl, CD): 3.13 kcal/mol/M | denaturant midpoint (higher = more stable) (pH 6, GdnHCl, CD): 4.5 M | unfolding free energy (pH 6, GdnHCl, CD): 14.1 kcal/mol | denaturant m value (pH 6, GdnHCl, Fluorescence): 3.08 kcal/mol/M | denaturant midpoint (higher = more stable) (pH 6, GdnHCl, Fluorescence): 4.5 M | unfolding free energy (pH 6, GdnHCl, Fluorescence): 13.9 kcal/mol | unfolding free energy (pH 6, Thermal, DSC): 14.2 kcal/mol | Tm (pH 6, Thermal, DSC): 88.7 °C | heat capacity change of unfolding (pH 6, Thermal, DSC): 1.31 kcal/mol/K | unfolding enthalpy (calorimetric) (pH 6, Thermal, DSC): 129 kcal/mol | unfolding enthalpy (van 't Hoff) (pH 6, Thermal, DSC): 128 kcal/mol | unfolding free energy (pH 7, Thermal, DSC): 13.7 kcal/mol | Tm (pH 7, Thermal, DSC): 87.8 °C | heat capacity change of unfolding (pH 7, Thermal, DSC): 1.43 kcal/mol/K | unfolding enthalpy (calorimetric) (pH 7, Thermal, DSC): 127 kcal/mol | unfolding enthalpy (van 't Hoff) (pH 7, Thermal, DSC): 123 kcal/mol | unfolding free energy (pH 8, Thermal, DSC): 13 kcal/mol | Tm (pH 8, Thermal, DSC): 85.4 °C | heat capacity change of unfolding (pH 8, Thermal, DSC): 1.39 kcal/mol/K | unfolding enthalpy (calorimetric) (pH 8, Thermal, DSC): 123 kcal/mol | unfolding enthalpy (van 't Hoff) (pH 8, Thermal, DSC): 127 kcal/mol
